Experimental data as given in US20120027773A1 (AVEO PHARMACEUTICALS, published 2012).
Each block holds one binder with its values, some of them ahead of it.

What was measured:
[1] = target: T1, recombinant human RON-ECD/mFc fusion protein (human, UniProt Q04912 25-957); assay: SPR, Ab captured on anti-mouse IgG, 37 C, AVG
T1 construct: extracellular domain; also called rhRON ECD/mFc; rhRon ECD/mFc; not shown: THXmFC: Thrombin/His tag/Factor Xa-AJ mouse IgG-Fc
Method: (§1) The binding affinities and kinetics of binding of antibodies 07F01, 29B06, 17F06, 18H09, and 12B11 to recombinant human RON-ECD/mFc fusion protein (rhRON ECD/mFc) and recombinant human RON SEMA and PSI domains (rhRON SEMA+PSI) (R&D Systems, Inc., Minneapolis, Minn.) were measured by surface plasmon resonance, using a Biacore T100 instrument (GE Healthcare, Piscataway, N.J.).
(§2) Rabbit anti-mouse IgGs (GE Healthcare) were immobilized on carboxymethylated dextran CM4 sensor chips (GE Healthcare) by amine coupling, according to a standard protocol. Analyses were performed at 25° C. and 37° C., using PBS containing 0.05% surfactant P20 as running buffer. The antibodies were captured in individual flow cells at a flow rate of 10 μl/min. Injection time was varied for each antibody to yield an Rmax between 30 and 60 RU. 250 μg/mL mouse Fc were injected at 30 μl/min for 120 seconds to block non-specific binding of antibodies to Fc portion of the protein when needed. Buffer, rhRon ECD/mFc or rhRON SEMA+PSI diluted in running buffer was injected sequentially over a reference surface (no antibody captured) and the active surface (antibody to be tested) for 300 seconds at 60 μl/minute. The dissociation phase was monitored for up to 3600 seconds. The surface was then regenerated with two 60-second injections of 10 mM Glycine-HCl, pH 1.7, at a flow rate of 60 μl/min. The rhRON ECD/mFc or rhRON SEMA+PSI concentration range tested was 0.625 nM to 20 nM.
Kinetic parameters were determined using the kinetic function of the BIAevaluation software (GE Healthcare) with double reference subtraction. Kinetic parameters for each antibody, kₐ (association rate constant), kd (dissociation rate constant) and KD (equilibrium dissociation constant) were determined.

[2] = target: T2, recombinant human RON SEMA and PSI domains (human, UniProt Q04912 25-571); assay: SPR, Ab captured on anti-mouse IgG, 37 C, AVG
T2 construct: domain: SEMA+PSI; Commercial protein (R&D Systems); also called rhRON SEMA+PSI; hRON SEMA+PSI
Method: as §1, §2

- Kd [1]: 0.21 nM
- koff [1]: 0.00035 s⁻¹
- kon [1]: 2.1e+06 M⁻¹ s⁻¹
- Kd [2]: 0.4 nM
- koff [2]: 0.0008 s⁻¹
- kon [2]: 2e+06 M⁻¹ s⁻¹
B1: 07F01 (antibody, mouse IgG1, kappa, V domains shown)
VH: EVKLLESGGGLVQPGGSLKLSCAASGFDFSRHWMSWVRLAPGKGLEWIAEINPDSRTINYTPSLKEKFIISRDNAKNSLFLQMNRVRSEDTALYYCARRVRIHYYGAMDCWGQGTSVTVSS
VL: DIVLTQSQKIVSTSVGARVSVTCKASQNVGSSLVWYQQKPGQSPKTLIYSASFRYSGVPDRFTGSGSGTDFTLTISNVQSEDLADYFCQQYNNYPLTFGAGTKLELKR
notes: Murine hybridoma monoclonal, IgG1/kappa; also called mu07F01; antibody 07F01

- Kd [1]: 0.28 nM
- koff [1]: 0.0007 s⁻¹
- kon [1]: 2.3e+06 M⁻¹ s⁻¹
- Kd [2]: 1.3 nM
- koff [2]: 0.00069 s⁻¹
- kon [2]: 520000 M⁻¹ s⁻¹
B2: 29B06 (antibody, mouse IgG1, kappa)
heavy: EVQLQESGPSLVKPSQTLSLTCSVTGDSITSGYWNWIRKFPGNKLEYMGYISYSGKTYYNPSLKSRISITRDTSKNHYYLQLISVTAEDTATYYCARSKYDYAMDYWGQGTSVTVSSAKTTPPSVYPLAPGSAAQTNSMVTLGCLVKGYFPEPVTVTWNSGSLSSGVHTFPAVLQSDLYTLSSSVTVPSSTWPSETVTCNVAHPASSTKVDKKIVPRDCGCKPCICTVPEVSSVFIFPPKPKDVLTITLTPKVTCVVVDISKDDPEVQFSWFVDDVEVHTAQTQPREEQFNSTFRSVSELPIMHQDWLNGKEFKCRVNSAAFPAPIEKTISKTKGRPKAPQVYTIPPPKEQMAKDKVSLTCMITDFFPEDITVEWQWNGQPAENYKNTQPIMDTDGSYFVYSKLNVQKSNWEAGNTFTCSVLHEGLHNHHTEKSLSHSPGK
light: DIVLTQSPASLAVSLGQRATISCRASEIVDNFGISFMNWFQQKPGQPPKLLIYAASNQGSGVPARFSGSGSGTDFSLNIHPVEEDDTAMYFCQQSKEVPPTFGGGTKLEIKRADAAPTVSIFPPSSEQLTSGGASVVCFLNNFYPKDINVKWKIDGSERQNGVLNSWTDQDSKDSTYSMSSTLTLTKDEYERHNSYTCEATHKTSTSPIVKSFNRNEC
notes: Murine hybridoma monoclonal, IgG1/kappa; also called mu29B06; antibody 29B06
